Experimental data reported in patent publication US20130236459A1 (MERRIMACK PHARMACEUTICALS, published 2013).
Where two headings read alike, the source gives them in different places.

Experiments:
Assay in all cases: cell-based or functional assay
[1] = target: T1, ErbB3 (HER3), endogenous on human tumor cell lines (human, UniProt P21860 20-1342)
[2] = target: T2, IGF-1R (receptor for insulin-like growth factor 1), endogenous on human tumor cell lines (human, UniProt P08069 31-1367)
[3] = target: T1, ErbB3 (HER3), endogenous on human tumor …; remark: listed apart in the source
[4] = target: T2, IGF-1R (receptor for insulin-like …); remark: listed apart in the source

T2 sequence (P08069 31-1367): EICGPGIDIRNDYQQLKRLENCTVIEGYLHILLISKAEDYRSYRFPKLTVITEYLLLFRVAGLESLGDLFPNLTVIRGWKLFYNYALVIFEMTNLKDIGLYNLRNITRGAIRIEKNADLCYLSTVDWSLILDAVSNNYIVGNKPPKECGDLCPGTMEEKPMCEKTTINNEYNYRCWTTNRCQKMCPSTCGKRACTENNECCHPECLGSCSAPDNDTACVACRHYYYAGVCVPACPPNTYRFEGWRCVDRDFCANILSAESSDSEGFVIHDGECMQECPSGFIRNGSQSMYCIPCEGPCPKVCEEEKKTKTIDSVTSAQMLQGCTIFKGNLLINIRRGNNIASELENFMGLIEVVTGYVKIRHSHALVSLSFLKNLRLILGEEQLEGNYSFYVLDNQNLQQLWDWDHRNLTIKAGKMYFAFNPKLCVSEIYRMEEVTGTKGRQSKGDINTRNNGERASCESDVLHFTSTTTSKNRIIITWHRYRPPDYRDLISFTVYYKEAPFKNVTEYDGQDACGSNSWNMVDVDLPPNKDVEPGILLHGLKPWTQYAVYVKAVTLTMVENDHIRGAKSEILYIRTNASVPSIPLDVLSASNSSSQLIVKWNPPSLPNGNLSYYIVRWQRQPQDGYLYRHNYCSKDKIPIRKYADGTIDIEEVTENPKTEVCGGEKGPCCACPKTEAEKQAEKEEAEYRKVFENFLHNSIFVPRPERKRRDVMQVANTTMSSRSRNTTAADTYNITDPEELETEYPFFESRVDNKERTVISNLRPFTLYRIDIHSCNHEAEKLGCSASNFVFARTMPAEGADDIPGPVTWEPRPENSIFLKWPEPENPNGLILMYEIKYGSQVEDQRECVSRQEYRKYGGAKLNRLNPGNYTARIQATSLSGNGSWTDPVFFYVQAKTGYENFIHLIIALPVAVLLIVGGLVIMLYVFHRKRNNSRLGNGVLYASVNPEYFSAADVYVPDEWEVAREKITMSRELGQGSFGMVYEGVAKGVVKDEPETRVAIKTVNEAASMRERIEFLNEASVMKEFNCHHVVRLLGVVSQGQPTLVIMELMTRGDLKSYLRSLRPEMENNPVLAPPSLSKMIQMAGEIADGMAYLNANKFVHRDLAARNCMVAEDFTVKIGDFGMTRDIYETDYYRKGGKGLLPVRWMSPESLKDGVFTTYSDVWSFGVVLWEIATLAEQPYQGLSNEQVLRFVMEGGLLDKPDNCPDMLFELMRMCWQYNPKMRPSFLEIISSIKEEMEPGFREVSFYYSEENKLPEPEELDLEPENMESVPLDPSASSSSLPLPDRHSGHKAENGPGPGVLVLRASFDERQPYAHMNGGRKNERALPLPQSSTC
T1 sequence (P21860 20-1342 limits assumed): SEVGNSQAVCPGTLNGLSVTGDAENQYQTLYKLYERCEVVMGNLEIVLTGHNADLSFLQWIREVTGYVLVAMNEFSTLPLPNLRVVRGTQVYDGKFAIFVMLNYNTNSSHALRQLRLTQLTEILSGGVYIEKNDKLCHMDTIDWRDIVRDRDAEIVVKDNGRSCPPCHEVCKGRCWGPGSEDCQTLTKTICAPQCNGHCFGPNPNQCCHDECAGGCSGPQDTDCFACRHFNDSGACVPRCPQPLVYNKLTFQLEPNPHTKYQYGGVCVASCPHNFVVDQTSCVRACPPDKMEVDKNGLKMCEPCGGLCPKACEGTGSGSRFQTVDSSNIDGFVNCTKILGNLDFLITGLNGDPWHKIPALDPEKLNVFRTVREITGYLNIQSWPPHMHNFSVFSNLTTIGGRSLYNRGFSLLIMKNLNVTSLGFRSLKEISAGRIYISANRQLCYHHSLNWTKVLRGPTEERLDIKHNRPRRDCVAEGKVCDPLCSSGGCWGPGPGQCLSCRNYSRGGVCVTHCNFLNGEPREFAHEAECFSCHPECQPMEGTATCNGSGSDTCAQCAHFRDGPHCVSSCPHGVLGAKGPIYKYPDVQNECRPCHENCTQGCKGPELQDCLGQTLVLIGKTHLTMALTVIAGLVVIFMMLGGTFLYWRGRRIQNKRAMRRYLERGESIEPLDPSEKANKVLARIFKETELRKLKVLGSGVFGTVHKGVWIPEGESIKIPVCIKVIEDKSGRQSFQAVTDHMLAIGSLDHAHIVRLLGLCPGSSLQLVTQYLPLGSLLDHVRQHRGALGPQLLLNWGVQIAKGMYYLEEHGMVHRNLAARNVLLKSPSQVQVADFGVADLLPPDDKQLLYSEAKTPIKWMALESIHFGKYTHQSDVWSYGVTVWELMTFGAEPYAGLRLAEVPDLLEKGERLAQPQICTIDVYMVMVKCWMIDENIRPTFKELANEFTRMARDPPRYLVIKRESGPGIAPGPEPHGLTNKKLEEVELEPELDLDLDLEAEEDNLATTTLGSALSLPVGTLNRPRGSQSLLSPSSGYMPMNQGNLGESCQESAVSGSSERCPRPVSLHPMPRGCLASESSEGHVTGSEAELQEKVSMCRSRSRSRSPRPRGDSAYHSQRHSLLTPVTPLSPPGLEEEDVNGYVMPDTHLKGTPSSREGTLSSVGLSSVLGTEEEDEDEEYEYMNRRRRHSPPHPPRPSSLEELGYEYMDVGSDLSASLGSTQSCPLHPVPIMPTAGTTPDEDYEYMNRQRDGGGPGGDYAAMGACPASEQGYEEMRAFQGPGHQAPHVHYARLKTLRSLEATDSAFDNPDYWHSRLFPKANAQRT

B1: B60-G1-M78 (bispecific antibody, human IgG1, lambda)
heavy: not shown
light: SSELTQDPAVSVALGQTVRITCQGDSLRSYYASWYQQKPGQAPVLVIYGKNNRPSGIPDRFSGSSSGNTASLTITGAQAEDEADYYCNSRDWPGNQWVFGGGTKVTVLGQPKAAPSVTLFPPSSEELQANKATLVCLVSDFYPGAVTVAWKADGSPVKVGVETTKPSKQSNNKYAASSYLSLTPEQWKSHRSYSCRVTHEGSTVEKTVAPAECS
- pErbB3 % Inhibition (BxPC-3) [1]: 115%
- pErbB3 IC50 (BxPC-3) [1]: 8e-11 M (inferred)
- pIGF1R % Inhibition (BxPC-3) [2]: 86%
- pIGF1R IC50 (BxPC-3) [2]: 3.5e-09 M (inferred)
- pErbB3 IC50 (BxPC-3) [3]: 1e-11 M (inferred)
- pIGF1R IC50 (BxPC-3) [4]: 1.4e-09 M (inferred)

B2: M27-G1-P4 (bispecific antibody, human IgG1, lambda)
heavy: not shown
light: SSELTQDPAVSVALGQTVRITCQGDSLRSYYASWYQQKPGQAPVLVIYGKNNRPSGIPDRFSGSSSGNTASLTITGAQAEDEADYYCNSRDTPGDQWVFGGGTKVTVLGQPKAAPSVTLFPPSSEELQANKATLVCLVSDFYPGAVTVAWKADGSPVKVGVETTKPSKQSNNKYAASSYLSLTPEQWKSHRSYSCRVTHEGSTVEKTVAPAECS
- pErbB3 % Inhibition (BxPC-3) [1]: 106%
- pErbB3 IC50 (BxPC-3) [1]: 1e-10 M (inferred)
- pIGF1R % Inhibition (BxPC-3) [2]: 88%
- pIGF1R IC50 (BxPC-3) [2]: 3e-09 M (inferred)

B3: M27/M7-G1-M78 (bispecific antibody, human IgG1, lambda)
heavy: not shown
light: SSELTQDPAVSVALGQTVRITCQGDSLRSYYASWYQQKPGQAPVLVIYGKNNRPSGIPDRFSGSSSGNTASLTITGAQAEDEADYYCNSRDTPGNKWVFGGGTKVTVIGQPKAAPSVTLFPPSSEELQANKATLVCLVSDFYPGAVTVAWKADGSPVKVGVETTKPSKQSNNKYAASSYLSLTPEQWKSHRSYSCRVTHEGSTVEKTVAPAECS
- pErbB3 % Inhibition (BxPC-3) [1]: 140%
- pErbB3 IC50 (BxPC-3) [1]: 1.1e-10 M (inferred)
- pIGF1R % Inhibition (BxPC-3) [2]: 91%
- pIGF1R IC50 (BxPC-3) [2]: 1e-09 M (inferred)

B4: M27-G1-M78 (bispecific antibody, human IgG1, lambda)
heavy: not shown
light: SSELTQDPAVSVALGQTVRITCQGDSLRSYYASWYQQKPGQAPVLVIYGKNNRPSGIPDRFSGSSSGNTASLTITGAQAEDEADYYCNSRDTPGDQWVFGGGTKVTVLGQPKAAPSVTLFPPSSEELQANKATLVCLVSDFYPGAVTVAWKADGSPVKVGVETTKPSKQSNNKYAASSYLSLTPEQWKSHRSYSCRVTHEGSTVEKTVAPAECS
- pErbB3 % Inhibition (BxPC-3) [1]: 107%
- pErbB3 IC50 (BxPC-3) [1]: 1.2e-10 M (inferred)
- pIGF1R % Inhibition (BxPC-3) [2]: 87%
- pIGF1R IC50 (BxPC-3) [2]: 1.4e-09 M (inferred)

B5: M27-G1-M57 (bispecific antibody, human IgG1, lambda)
heavy: not shown
light: SSELTQDPAVSVALGQTVRITCQGDSLRSYYASWYQQKPGQAPVLVIYGKNNRPSGIPDRFSGSSSGNTASLTITGAQAEDEADYYCNSRDTPGDQWVFGGGTKVTVLGQPKAAPSVTLFPPSSEELQANKATLVCLVSDFYPGAVTVAWKADGSPVKVGVETTKPSKQSNNKYAASSYLSLTPEQWKSHRSYSCRVTHEGSTVEKTVAPAECS
- pErbB3 % Inhibition (BxPC-3) [1]: 88%
- pErbB3 IC50 (BxPC-3) [1]: 3.1e-10 M (inferred)
- pIGF1R % Inhibition (BxPC-3) [2]: 83%
- pIGF1R IC50 (BxPC-3) [2]: 8.1e-09 M (inferred)

B6: M7-G1-M57 (bispecific antibody, human IgG1, lambda)
heavy: not shown
light: SSELTQDPAVSVALGQTVRITCQGDSLRSYYASWYQQKPGQAPVLVIYGKNNRPSGIPDRFSGSSSGNTASLTITGAQAEDEADYYCNSRDTPGNKWVFGGGTKVTVIGQPKAAPSVTLFPPSSEELQANKATLVCLVSDFYPGAVTVAWKADGSPVKVGVETTKPSKQSNNKYAASSYLSLTPEQWKSHRSYSCRVTHEGSTVEKTVAPAECS
- pErbB3 % Inhibition (BxPC-3) [1]: 124%
- pErbB3 IC50 (BxPC-3) [1]: 5.2e-11 M (inferred)
- pIGF1R % Inhibition (BxPC-3) [2]: 82%
- pIGF1R IC50 (BxPC-3) [2]: 2.1e-08 M (inferred)
- pErbB3 IC50 (BxPC-3) [3]: 5.2e-11 M (inferred)
- pIGF1R IC50 (BxPC-3) [4]: 2.1e-08 M (inferred)

B7: M27/M7-G1-M57 (bispecific antibody, human IgG1, lambda)
heavy: not shown
light: SSELTQDPAVSVALGQTVRITCQGDSLRSYYASWYQQKPGQAPVLVIYGKNNRPSGIPDRFSGSSSGNTASLTITGAQAEDEADYYCNSRDTPGNKWVFGGGTKVTVIGQPKAAPSVTLFPPSSEELQANKATLVCLVSDFYPGAVTVAWKADGSPVKVGVETTKPSKQSNNKYAASSYLSLTPEQWKSHRSYSCRVTHEGSTVEKTVAPAECS
- pErbB3 % Inhibition (BxPC-3) [1]: 179%
- pErbB3 IC50 (BxPC-3) [1]: 1.5e-10 M (inferred)
- pIGF1R % Inhibition (BxPC-3) [2]: 91%
- pIGF1R IC50 (BxPC-3) [2]: 7.5e-09 M (inferred)

B8: M7-G1-P4 (bispecific antibody, human IgG1, lambda)
heavy: not shown
light: SSELTQDPAVSVALGQTVRITCQGDSLRSYYASWYQQKPGQAPVLVIYGKNNRPSGIPDRFSGSSSGNTASLTITGAQAEDEADYYCNSRDTPGNKWVFGGGTKVTVIGQPKAAPSVTLFPPSSEELQANKATLVCLVSDFYPGAVTVAWKADGSPVKVGVETTKPSKQSNNKYAASSYLSLTPEQWKSHRSYSCRVTHEGSTVEKTVAPAECS
- pErbB3 % Inhibition (BxPC-3) [1]: 109%
- pErbB3 IC50 (BxPC-3) [1]: 2.4e-11 M (inferred)
- pIGF1R % Inhibition (BxPC-3) [2]: 93%
- pIGF1R IC50 (BxPC-3) [2]: 2.4e-09 M (inferred)
- pErbB3 IC50 (BxPC-3) [3]: 2.4e-11 M (inferred)
- pIGF1R IC50 (BxPC-3) [4]: 2.4e-09 M (inferred)

B9: M27/M7-G1-P4 (bispecific antibody, human IgG1, lambda)
heavy: not shown
light: SSELTQDPAVSVALGQTVRITCQGDSLRSYYASWYQQKPGQAPVLVIYGKNNRPSGIPDRFSGSSSGNTASLTITGAQAEDEADYYCNSRDTPGNKWVFGGGTKVTVIGQPKAAPSVTLFPPSSEELQANKATLVCLVSDFYPGAVTVAWKADGSPVKVGVETTKPSKQSNNKYAASSYLSLTPEQWKSHRSYSCRVTHEGSTVEKTVAPAECS
- pErbB3 % Inhibition (BxPC-3) [1]: 111%
- pErbB3 IC50 (BxPC-3) [1]: 4e-11 M (inferred)
- pIGF1R % Inhibition (BxPC-3) [2]: 99%
- pIGF1R IC50 (BxPC-3) [2]: 1.3e-08 M (inferred)

B10: M57-G1-M1.3 (bispecific antibody, human IgG1, kappa)
heavy: not shown
light: DIQLTQSPSSLSASLGDRVTITCRASQGISSYLAWYQQKPGKAPKLLIYARSTRQSGVPSRFSGSGSGTEFTLTISSLQPEDSATYYCQQYWTWPLTFGGGTKVEIKRTVAAPSVFIFPPSDEQLKSGTASVVCLLNNFYPREAKVQWKVDNALQSGNSQESVTEQDSKDSTYSLSSTLTLSKADYEKHKVYACEVTHQGLSSPVTKSFNRGEC
- pErbB3 % Inhibition (BxPC-3) [1]: 99%
- pErbB3 IC50 (BxPC-3) [1]: 1.4e-10 M (inferred)
- pIGF1R % Inhibition (BxPC-3) [2]: 94%
- pIGF1R IC50 (BxPC-3) [2]: 4.1e-10 M (inferred)

B11: M78-G1-C8 (bispecific antibody, human IgG1, kappa)
heavy: not shown
light: DIQMTQSPSSLSASLGDRVTITCRASQGISSYLAWYQQKPGKAPKLLIYASSTRQSGVPSRFSGSGSGTDFTLTISSLQPEDSGTYYCQQYWAFPLTFGGGTKVEIKRTVAAPSVFIFPPSDEQLKSGTASVVCLLNNFYPREAKVQWKVDNALQSGNSQESVTEQDSKDSTYSLSSTLTLSKADYEKHKVYACEVTHQGLSSPVTKSFNRGEC
- pErbB3 % Inhibition (BxPC-3) [1]: 98%
- pErbB3 IC50 (BxPC-3) [1]: 2.3e-10 M (inferred)
- pIGF1R % Inhibition (BxPC-3) [2]: 96%
- pIGF1R IC50 (BxPC-3) [2]: 6.8e-10 M (inferred)

B12: M57-G1-P6 (bispecific antibody, human IgG1, kappa)
heavy: not shown
light: DIQLTQSPSSLSASLGDRVTITCRASQGISSYLAWYQQKPGKAPKLLIYARSTRQSGVPSRFSGSGSGTEFTLTISSLQPEDSATYYCQQYWTWPLTFGGGTKVEIKRTVAAPSVFIFPPSDEQLKSGTASVVCLLNNFYPREAKVQWKVDNALQSGNSQESVTEQDSKDSTYSLSSTLTLSKADYEKHKVYACEVTHQGLSSPVTKSFNRGEC
- pErbB3 % Inhibition (BxPC-3) [1]: 98%
- pErbB3 IC50 (BxPC-3) [1]: 7.9e-11 M (inferred)
- pIGF1R % Inhibition (BxPC-3) [2]: 92%
- pIGF1R IC50 (BxPC-3) [2]: 2.5e-10 M (inferred)

B13: P4-G1-P6 (bispecific antibody, human IgG1, kappa)
heavy: not shown
light: DIQMTQSPSSLSASLGDRVTITCRASQGISSYLAWYQQKPGKAPKLLIYAKSTLQSGVPSRFSGSGSGTDFTLTISSLQPEDSATYYCQQYWTFPLTFGGGTKVEIKRTVAAPSVFIFPPSDEQLKSGTASVVCLLNNFYPREAKVQWKVDNALQSGNSQESVTEQDSKDSTYSLSSTLTLSKADYEKHKVYACEVTHQGLSSPVTKSFNRGEC
- pErbB3 % Inhibition (BxPC-3) [1]: 95%
- pErbB3 IC50 (BxPC-3) [1]: 3.9e-11 M (inferred)
- pIGF1R % Inhibition (BxPC-3) [2]: 91%
- pIGF1R IC50 (BxPC-3) [2]: 1.6e-10 M (inferred)

B14: M78-G1-P6 (bispecific antibody, human IgG1, kappa)
heavy: not shown
light: DIQMTQSPSSLSASLGDRVTITCRASQGISSYLAWYQQKPGKAPKLLIYASSTRQSGVPSRFSGSGSGTDFTLTISSLQPEDSGTYYCQQYWAFPLTFGGGTKVEIKRTVAAPSVFIFPPSDEQLKSGTASVVCLLNNFYPREAKVQWKVDNALQSGNSQESVTEQDSKDSTYSLSSTLTLSKADYEKHKVYACEVTHQGLSSPVTKSFNRGEC
- pErbB3 % Inhibition (BxPC-3) [1]: 100%
- pErbB3 IC50 (BxPC-3) [1]: 1.4e-10 M (inferred)
- pIGF1R % Inhibition (BxPC-3) [2]: 95%
- pIGF1R IC50 (BxPC-3) [2]: 4.2e-10 M (inferred)

B15: M78-G1-M1.3 (bispecific antibody, human IgG1, kappa)
heavy: not shown
light: DIQMTQSPSSLSASLGDRVTITCRASQGISSYLAWYQQKPGKAPKLLIYASSTRQSGVPSRFSGSGSGTDFTLTISSLQPEDSGTYYCQQYWAFPLTFGGGTKVEIKRTVAAPSVFIFPPSDEQLKSGTASVVCLLNNFYPREAKVQWKVDNALQSGNSQESVTEQDSKDSTYSLSSTLTLSKADYEKHKVYACEVTHQGLSSPVTKSFNRGEC
- pErbB3 % Inhibition (BxPC-3) [1]: 99%
- pErbB3 IC50 (BxPC-3) [1]: 1.4e-10 M (inferred)
- pIGF1R % Inhibition (BxPC-3) [2]: 97%
- pIGF1R IC50 (BxPC-3) [2]: 5e-10 M (inferred)

B16: M57-G1-C8 (bispecific antibody, human IgG1, kappa)
heavy: not shown
light: DIQLTQSPSSLSASLGDRVTITCRASQGISSYLAWYQQKPGKAPKLLIYARSTRQSGVPSRFSGSGSGTEFTLTISSLQPEDSATYYCQQYWTWPLTFGGGTKVEIKRTVAAPSVFIFPPSDEQLKSGTASVVCLLNNFYPREAKVQWKVDNALQSGNSQESVTEQDSKDSTYSLSSTLTLSKADYEKHKVYACEVTHQGLSSPVTKSFNRGEC
- pErbB3 % Inhibition (BxPC-3) [1]: 98%
- pErbB3 IC50 (BxPC-3) [1]: 6.5e-11 M (inferred)
- pIGF1R % Inhibition (BxPC-3) [2]: 93%
- pIGF1R IC50 (BxPC-3) [2]: 2.5e-10 M (inferred)
